Source: PMC3699631, “Posttranslational Modifications of the Histone 3 Tail and Their Impact on the Activity of Histone Lysine Demethylases In Vitro” (PLoS ONE, 2013)
“Also recorded” adds a separate entry of the source.

Target: T1, human FL-KDM4A (Homo sapiens, UniProt O75164)
T1 construct: along with the full length FL- KDM4C and FL-KDM4A using various synthetic histone tail peptides as substrates; His6 (N); made in house; host or cells: High Five (Trichoplusia ni) insect cells, baculovirus
T1 sequence (O75164 1-1064): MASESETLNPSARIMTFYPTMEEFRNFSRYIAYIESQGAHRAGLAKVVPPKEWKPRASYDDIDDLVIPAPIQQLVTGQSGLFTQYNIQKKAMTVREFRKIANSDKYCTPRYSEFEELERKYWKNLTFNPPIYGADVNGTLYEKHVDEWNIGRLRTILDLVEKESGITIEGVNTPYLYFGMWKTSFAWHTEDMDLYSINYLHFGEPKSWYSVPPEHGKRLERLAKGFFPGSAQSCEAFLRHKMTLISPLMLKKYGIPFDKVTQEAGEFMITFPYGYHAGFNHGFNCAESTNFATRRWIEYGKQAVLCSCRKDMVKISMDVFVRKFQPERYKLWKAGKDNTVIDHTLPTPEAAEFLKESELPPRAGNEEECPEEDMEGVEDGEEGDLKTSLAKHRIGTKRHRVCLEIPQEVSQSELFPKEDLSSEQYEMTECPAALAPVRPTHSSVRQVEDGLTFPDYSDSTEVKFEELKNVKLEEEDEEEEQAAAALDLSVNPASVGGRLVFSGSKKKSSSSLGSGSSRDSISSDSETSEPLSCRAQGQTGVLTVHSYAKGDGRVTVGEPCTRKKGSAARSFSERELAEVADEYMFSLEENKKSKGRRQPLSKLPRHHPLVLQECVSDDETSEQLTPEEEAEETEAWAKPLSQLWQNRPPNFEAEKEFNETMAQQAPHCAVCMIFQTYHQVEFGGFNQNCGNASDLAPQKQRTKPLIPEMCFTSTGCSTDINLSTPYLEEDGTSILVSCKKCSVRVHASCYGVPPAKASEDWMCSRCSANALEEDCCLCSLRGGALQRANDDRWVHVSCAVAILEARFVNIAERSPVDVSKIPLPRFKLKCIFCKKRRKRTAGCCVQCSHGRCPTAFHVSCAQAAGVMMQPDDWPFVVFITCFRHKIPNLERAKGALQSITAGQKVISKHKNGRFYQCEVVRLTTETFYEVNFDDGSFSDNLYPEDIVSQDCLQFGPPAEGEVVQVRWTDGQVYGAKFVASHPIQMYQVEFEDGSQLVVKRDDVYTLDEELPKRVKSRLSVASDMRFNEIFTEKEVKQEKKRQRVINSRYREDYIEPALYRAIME
Test: FDH-assay enzyme kinetics of H3 peptide demethylation, full length KDM4A
Format: biochemical
Set-up: key to K m / k cat / k cat /K m: 0 means no demethylation could be detected
Details: for demethylation / catalytic activity (in words) / K m / k cat / k cat /K m: FDH-assay; for K m: 50 mM HEPES (pH 7.5), 50 mM NaCl, 50 µM FeSO4, 500 µM α-KG, 500 µM ascorbate, 2 mM NAD, substrate 10–1000 µM, NADH fluorescence 15–30 minutes; for K m / k cat: triplicate; for k cat: pH 7.5, NADH fluorescence; for k cat /K m: pH 7.5, triplicate
Experimental: The enzyme kinetics were measured using a Formaldehyde DeHydrogenase Assay (FDH-Assay) and the demethylation of substrates was confirmed when possible by MALDI-TOF-MS, see File S1 for details. The test solution contained 50 mM HEPES (pH 7.5), 50 mM NaCl, 50 µM FeSO4, 500 µM α-KG, 500 µM ascorbate, 2 mM NAD, approximately 0.05 unit of FDH and e.g. 4.88 µM KDM4C (enzyme concentration varied between batches). The reference solution was comprised of the same except substrate. The assay was initiated by adding various concentrations of H3 peptide substrates e.g. H3(1–24)K9me3 (10–1000 µM) and the increase in NADH fluorescence was measured over 15–30 minutes in 30 second intervals. Data analysis and kinetic values were obtained using programs Excel and GraphPad Prism® 5.0. For details, see File S1.
The standard deviations for k cat/K m were calculated using the statistic law of propagation of errors. Standard errors for Michaelis-Menten Kinetics were automatically given in GraphPad Prism®, with a 95% confidence interval. All enzyme kinetic curves were done in triplicate unless otherwise stated.
Test for activity of enzyme using the fluorescence FDH assay, determination of Vmax and Km of enzymes with substrate, expression and purification of cc-KDM4A and cc-KDM4C software and parameters for the FDH coupled assay, see Lohse et al.^21
Recombinant baculoviridae encoding the full Open Reading Frame (ORF) of FL-KDM4A and FL-KDM4C were generously donated from the Biotech Research and Innovation Centre (BRIC), University of Copenhagen, Denmark. Recombinant protein was expressed by adding High Titer Stocks to High Five (Trichopulsia ni) insect cells in suspension culture. The cell cultures were harvested by centrifugation after ~ 60 hours and the cells were resuspended in hypotonic buffer (25 mM Hepes-KOH, pH 7.7, 1.5 mM MgCl, 5 mM KCl) supplemented with one protease inhibitor cocktail tablet per 500 ml expression (Roche, EDTA-free). The resuspended cells were frozen at -20 °C.
Both proteins were purified by IMAC using Talon FF (Clontech) cobalt resin according to the following protocol; resuspended cells were thawed on ice, 100 ml hypotonic buffer was added per 500 ml expression volume and the cells were incubated with stirring for 30 min. at 4 °C, followed by a brief (30 s per 500 ml culture volume) sonication. β-mercaptoethanol (BME, 2 mM final concentration), Triton X-100 (0.2 % final concentration) and NaCl (300 mM final concentration) were added and the cell suspension was stirred for another 30 min at 4 °C. The lysate was cleared by centrifugation at 50.000 g for 60 minutes. The cleared lysates were adjusted to 5 mM imidazole and incubated with Talon resin (1 ml /500 ml expression) for 60 minutes. The resin was allowed to sediment, the lysate removed and the resin was transferred to PD-10 gravity flow columns (GE Healthcare). The resin was washed with 10 column volumes of binding buffer (50 mM Hepes-KOH, pH 7.7, 300 mM NaCl, 5 mM imidazole, 10% glycerol, 0.05 % Triton X-100, 2 mM BME) and eluted with 2 x 2.5 ml elution buffer (50 mM Hepes-KOH, pH 7.7, 300 mM NaCl, 100 mM imidazole, 10 % glycerol, 0.05 % Triton X-100, 2 mM BME). Each eluted fraction has its buffer changed to 50 mM Hepes pH 7.5, 300 mM NaCl, 10 % glycerol using a PD-10 desalting column. The protein was concentrated to 6-7 mg/ml (FL-KDM4A) or 10-12 mg/ml (FL-KDM4C). Despite the buffer change it is likely that small amounts of Triton X-100 remained in the protein samples. Triton X-100 has a significant absorbance at 280 nm, so the protein concentration was determined by Bradford assay using a BSA standard curve. The protein purity was approximately 70 % as judged from SDS-PAGE. The concentrated protein was aliquoted and stored at -80 °C until assays were performed.
The standard deviations for kcat/ Km were calculated using the statistic law of propagation of errors. […]

[1] = SD by propagation of errors, unit: (min^−1 * µM^−1) * 10^3

Substance | demethylation / catalytic activity (in words) | K m | k cat | fold increase in k cat/K m (compared to H3(1–24)K9me3) [fold] | k cat /K m (figures) [min^-1 * μM^-1 * 10^3] | k cat /K m [1]
H3(1–24)K4me3K9me3: bis-tri-methylated substrate, trimethylated K4 in combination with H3K9me3 | an increase in FL-KDM4A demethylation activity, which is significantly higher compared to cc-KDM4A | 45±9 | 2.2±0.3 | 17 | 50 ± 9 | –
H3(1–24)K9me2: truncated histone tail, 24 first amino acids from the N-terminus of H3, dimethylated lysine 9 | too low to be detected; also recorded: could not be detected | 0 | 0 | – | – | 0
H3(1–24)K9me3: truncated histone tail, 24 first amino acids from the N-terminus of H3, trimethylated lysine 9; control peptide | preference for the H3K9me3 over the H3K9me2 | 122±31 | – | – | 3 ± 0.4 | 3.1±0.3
H3(1–24)K9me3T11(ph): H3(1–24)K9me3 with phosphorylation of threonine 11 | no detectable turnover | 0 | 0 | – | – | 0
